Assay results: PMC10094722, “How Single Amino Acid Substitutions Can Disrupt a Protein Hetero-Dimer Interface: Computational and Experimental Studies of the LigAB Dioxygenase from Sphingobium sp. Strain SYK-6” (International Journal of Molecular Sciences, 2023)
Where “and” joins values, the source holds several entries; their conditions need not be identical. Equal entries are not always repeated. One block for each binder: values may come before it.

Key:
[1] = molecular target: T1, LigA F103S (Sphingobium sp. strain SYK-6, UniProt P22635 1-139, F103S); assay: pull-down; co-purification of untagged LigB with His6-LigA on HisPur Ni-NTA resin from lysate of co-expressing E. coli, aerobic; 50 mM HEPES, 300 mM NaCl, pH 8.0, imidazole step gradient (62.5, 125, 250 mM); fractions on SDS-PAGE, Coomassie, quantified with ImageQuant; details: partners not purified
T1 construct: Protocatechuate 4,5-dioxygenase alpha chain (LigA), Sphingobium sp. strain SYK-6, with F103S; Site-directed mutagenesis as described by Barry et al; source: E. coli BL21, pET15b, co-expressed with LigB; in lysate and purified (Ni-NTA); not shown: His6, N-terminal, kept
T1 sequence: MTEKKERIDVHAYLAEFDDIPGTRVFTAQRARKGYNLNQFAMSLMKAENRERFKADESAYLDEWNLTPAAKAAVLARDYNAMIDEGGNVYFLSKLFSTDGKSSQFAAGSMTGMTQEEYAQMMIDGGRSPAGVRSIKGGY

[2] = molecular target: T2, LigA F103L (Sphingobium sp. strain SYK-6, UniProt P22635 1-139, F103L); assay: as above; details: partners not purified
T2 construct: Protocatechuate 4,5-dioxygenase alpha chain (LigA), Sphingobium sp. strain SYK-6, with F103L; Site-directed mutagenesis as described by Barry et al; source: E. coli BL21, pET15b, co-expressed with LigB; in lysate; not shown: His6, N-terminal, kept
T2 sequence: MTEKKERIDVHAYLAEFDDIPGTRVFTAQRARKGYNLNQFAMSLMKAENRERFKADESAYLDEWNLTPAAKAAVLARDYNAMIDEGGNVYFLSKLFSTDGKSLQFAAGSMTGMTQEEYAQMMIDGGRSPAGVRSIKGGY

[3] = molecular target: T3, LigA F103V (Sphingobium sp. strain SYK-6, UniProt P22635 1-139, F103V); assay: as above; details: partners not purified
T3 construct: Protocatechuate 4,5-dioxygenase alpha chain (LigA), Sphingobium sp. strain SYK-6, with F103V; Site-directed mutagenesis as described by Barry et al; source: E. coli BL21, pET15b, co-expressed with LigB; in lysate; not shown: His6, N-terminal, kept
T3 sequence: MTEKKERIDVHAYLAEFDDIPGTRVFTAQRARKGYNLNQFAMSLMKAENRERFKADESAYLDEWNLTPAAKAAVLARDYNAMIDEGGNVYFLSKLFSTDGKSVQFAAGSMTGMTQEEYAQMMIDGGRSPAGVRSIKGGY

[4] = molecular target: T4, LigA F103A (Sphingobium sp. strain SYK-6, UniProt P22635 1-139, F103A); assay: as above; details: partners not purified
T4 construct: Protocatechuate 4,5-dioxygenase alpha chain (LigA), Sphingobium sp. strain SYK-6, with F103A; Site-directed mutagenesis as described by Barry et al; also called F103α to alanine; source: E. coli BL21, pET15b, co-expressed with LigB; in lysate and purified (Ni-NTA); not shown: His6, N-terminal, kept
T4 sequence: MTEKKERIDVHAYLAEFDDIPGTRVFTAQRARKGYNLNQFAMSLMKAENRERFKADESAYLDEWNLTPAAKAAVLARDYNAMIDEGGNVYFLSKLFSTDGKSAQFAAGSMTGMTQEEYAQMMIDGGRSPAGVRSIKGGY

[5] = molecular target: T5, LigA F103T (Sphingobium sp. strain SYK-6, UniProt P22635 1-139, F103T); assay: as above; details: partners not purified
T5 construct: Protocatechuate 4,5-dioxygenase alpha chain (LigA), Sphingobium sp. strain SYK-6, with F103T; Site-directed mutagenesis as described by Barry et al; source: E. coli BL21, pET15b, co-expressed with LigB; in lysate; not shown: His6, N-terminal, kept
T5 sequence: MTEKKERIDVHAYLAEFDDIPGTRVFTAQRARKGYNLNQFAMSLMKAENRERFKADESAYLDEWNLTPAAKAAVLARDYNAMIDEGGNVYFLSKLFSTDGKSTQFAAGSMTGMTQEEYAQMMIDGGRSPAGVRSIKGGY

[6] = molecular target: T6, LigA, alpha subunit of protocatechuate 4,5-dioxygenase (LigAB), wild-type (Sphingobium sp. strain SYK-6, UniProt P22635 1-139); assay: as above; details: partners not purified
T6 construct: Protocatechuate 4,5-dioxygenase alpha chain (LigA), Sphingobium sp. strain SYK-6; 17.711 kDa with the His6-tag; also called α subunit; source: E. coli BL21, pET15b, co-expressed with LigB; in lysate and purified (Ni-NTA); not shown: His6, N-terminal, kept
T6 sequence: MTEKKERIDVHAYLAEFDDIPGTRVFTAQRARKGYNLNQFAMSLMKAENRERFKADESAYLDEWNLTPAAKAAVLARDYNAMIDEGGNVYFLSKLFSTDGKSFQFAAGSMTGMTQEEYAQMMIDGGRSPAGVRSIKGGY

[7] = molecular target: T7, LigA F103H (Sphingobium sp. strain SYK-6, UniProt P22635 1-139, F103H); assay: as above; details: partners not purified
T7 construct: Protocatechuate 4,5-dioxygenase alpha chain (LigA), Sphingobium sp. strain SYK-6, with F103H; Site-directed mutagenesis as described by Barry et al; source: E. coli BL21, pET15b, co-expressed with LigB; in lysate; not shown: His6, N-terminal, kept
T7 sequence: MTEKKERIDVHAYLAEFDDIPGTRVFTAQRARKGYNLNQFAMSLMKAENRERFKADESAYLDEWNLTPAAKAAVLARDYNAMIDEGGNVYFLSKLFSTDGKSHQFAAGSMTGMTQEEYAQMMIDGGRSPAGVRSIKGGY

[8] = molecular target: the molecule itself; assay: native gel or EMSA; 10% native polyacrylamide gel of purified LigAB (wild-type, F103A, F103S), Coomassie stained, 6.25 to 50 ug protein per lane; masses calculated from the bands

α:β ratio of abundances in elution fractions E3-1 to E3-5 [1]: 1.04
β:α ratio of abundances in elution fractions E3-1 to E3-5 [1]: 0.959
α:β ratio of abundances in elution fractions E3-1 to E3-5 [2]: 0.879
β:α ratio of abundances in elution fractions E3-1 to E3-5 [2]: 1.14
α:β ratio of abundances in elution fractions E3-1 to E3-5 [3]: 0.79
β:α ratio of abundances in elution fractions E3-1 to E3-5 [3]: 1.27
α:β ratio of abundances in elution fractions E3-1 to E3-5 [4]: 0.817
β:α ratio of abundances in elution fractions E3-1 to E3-5 [4]: 1.22
α:β ratio of abundances in elution fractions E3-1 to E3-5 [5]: 1.64
β:α ratio of abundances in elution fractions E3-1 to E3-5 [5]: 0.608
α:β ratio of abundances in elution fractions E3-1 to E3-5 [6]: 1.08
β:α ratio of abundances in elution fractions E3-1 to E3-5 [6]: 0.928
α:β ratio of abundances in elution fractions E3-1 to E3-5 [7]: 2.19
β:α ratio of abundances in elution fractions E3-1 to E3-5 [7]: 0.456
B1: LigB, beta subunit of protocatechuate 4,5-dioxygenase (LigAB) (natural protein, Sphingobium sp. strain SYK-6)
chain: MARVTTGITSSHIPALGAAIQTGTSDNDYWGPVFKGYQPIRDWIKQPGNMPDVVILVYNDHASAFDMNIIPTFAIGCAETFKPADEGWGPRPVPDVKGHPDLAWHIAQSLILDEFDMTIMNQMDVDHGCTVPLSMIFGEPEEWPCKVIPFPVNVVTYPPPSGKRCFALGDSIRAAVESFPEDLNVHVWGTGGMSHQLQGPRAGLINKEFDLNFIDKLISDPEELSKMPHIQYLRESGSEGVELVMWLIMRGALPEKVRDLYTFYHIPASNTALGAMILQPEETAGTPLEPRKVMSGHSLAQA
notes: Protocatechuate 4,5-dioxygenase beta chain (LigB), Sphingobium sp. strain SYK-6; 33.292 kDa; untagged; also called β subunit; source: E. coli BL21, pET15b, co-expressed with His6-LigA (wild-type or mutant); in lysate and co-purified (Ni-NTA)

B2: LigAB α/β heterodimer, wild-type (protocatechuate 4,5-dioxygenase) (complex, Sphingobium sp. strain SYK-6)
chain 1: MTEKKERIDVHAYLAEFDDIPGTRVFTAQRARKGYNLNQFAMSLMKAENRERFKADESAYLDEWNLTPAAKAAVLARDYNAMIDEGGNVYFLSKLFSTDGKSFQFAAGSMTGMTQEEYAQMMIDGGRSPAGVRSIKGGY
chain 2: MARVTTGITSSHIPALGAAIQTGTSDNDYWGPVFKGYQPIRDWIKQPGNMPDVVILVYNDHASAFDMNIIPTFAIGCAETFKPADEGWGPRPVPDVKGHPDLAWHIAQSLILDEFDMTIMNQMDVDHGCTVPLSMIFGEPEEWPCKVIPFPVNVVTYPPPSGKRCFALGDSIRAAVESFPEDLNVHVWGTGGMSHQLQGPRAGLINKEFDLNFIDKLISDPEELSKMPHIQYLRESGSEGVELVMWLIMRGALPEKVRDLYTFYHIPASNTALGAMILQPEETAGTPLEPRKVMSGHSLAQA
notes: Protocatechuate 4,5-dioxygenase alpha chain (LigA), Sphingobium sp. strain SYK-6; as m1; Protocatechuate 4,5-dioxygenase beta chain (LigB), Sphingobium sp. strain SYK-6; as m2; The heterodimer as the unit that associates with itself in the native gel; also called wild-type LigAB; WT-LigAB; source: E. coli BL21, pET15b, co-expressed, purified (Ni-NTA); not shown: His6, N-terminal, kept
stoichiometry N [8]: 3

B3: LigAB α/β heterodimer with LigA F103S (complex, Sphingobium sp. strain SYK-6)
chain 1: MTEKKERIDVHAYLAEFDDIPGTRVFTAQRARKGYNLNQFAMSLMKAENRERFKADESAYLDEWNLTPAAKAAVLARDYNAMIDEGGNVYFLSKLFSTDGKSSQFAAGSMTGMTQEEYAQMMIDGGRSPAGVRSIKGGY
chain 2: MARVTTGITSSHIPALGAAIQTGTSDNDYWGPVFKGYQPIRDWIKQPGNMPDVVILVYNDHASAFDMNIIPTFAIGCAETFKPADEGWGPRPVPDVKGHPDLAWHIAQSLILDEFDMTIMNQMDVDHGCTVPLSMIFGEPEEWPCKVIPFPVNVVTYPPPSGKRCFALGDSIRAAVESFPEDLNVHVWGTGGMSHQLQGPRAGLINKEFDLNFIDKLISDPEELSKMPHIQYLRESGSEGVELVMWLIMRGALPEKVRDLYTFYHIPASNTALGAMILQPEETAGTPLEPRKVMSGHSLAQA
notes: Protocatechuate 4,5-dioxygenase alpha chain (LigA), Sphingobium sp. strain SYK-6, with F103S; as m6; Protocatechuate 4,5-dioxygenase beta chain (LigB), Sphingobium sp. strain SYK-6; as m2; The heterodimer as the unit that associates with itself in the native gel; also called F103S variant; source: E. coli BL21, pET15b, co-expressed, purified (Ni-NTA); not shown: His6, N-terminal, kept
stoichiometry N [8]: 3 and 6

B4: LigAB α/β heterodimer with LigA F103A (complex, Sphingobium sp. strain SYK-6)
chain 1: MTEKKERIDVHAYLAEFDDIPGTRVFTAQRARKGYNLNQFAMSLMKAENRERFKADESAYLDEWNLTPAAKAAVLARDYNAMIDEGGNVYFLSKLFSTDGKSAQFAAGSMTGMTQEEYAQMMIDGGRSPAGVRSIKGGY
chain 2: MARVTTGITSSHIPALGAAIQTGTSDNDYWGPVFKGYQPIRDWIKQPGNMPDVVILVYNDHASAFDMNIIPTFAIGCAETFKPADEGWGPRPVPDVKGHPDLAWHIAQSLILDEFDMTIMNQMDVDHGCTVPLSMIFGEPEEWPCKVIPFPVNVVTYPPPSGKRCFALGDSIRAAVESFPEDLNVHVWGTGGMSHQLQGPRAGLINKEFDLNFIDKLISDPEELSKMPHIQYLRESGSEGVELVMWLIMRGALPEKVRDLYTFYHIPASNTALGAMILQPEETAGTPLEPRKVMSGHSLAQA
notes: Protocatechuate 4,5-dioxygenase alpha chain (LigA), Sphingobium sp. strain SYK-6, with F103A; as m3; Protocatechuate 4,5-dioxygenase beta chain (LigB), Sphingobium sp. strain SYK-6; as m2; The heterodimer as the unit that associates with itself in the native gel; also called F103A mutant enzyme; source: E. coli BL21, pET15b, co-expressed, purified (Ni-NTA); not shown: His6, N-terminal, kept
binding result [8]: binds
